Experimental findings from patent US20250042995A1 (AKESO BIOPHARMA, published 2025) are described below.

Assay [1] addresses T1, human LAG3-mFc (human, UniProt P18627 23-450).
T1 construct: also called antigen human LAG3-mFc; not shown: mFc: Fc protein fragment of mouse IgG
T1 sequence (looked up): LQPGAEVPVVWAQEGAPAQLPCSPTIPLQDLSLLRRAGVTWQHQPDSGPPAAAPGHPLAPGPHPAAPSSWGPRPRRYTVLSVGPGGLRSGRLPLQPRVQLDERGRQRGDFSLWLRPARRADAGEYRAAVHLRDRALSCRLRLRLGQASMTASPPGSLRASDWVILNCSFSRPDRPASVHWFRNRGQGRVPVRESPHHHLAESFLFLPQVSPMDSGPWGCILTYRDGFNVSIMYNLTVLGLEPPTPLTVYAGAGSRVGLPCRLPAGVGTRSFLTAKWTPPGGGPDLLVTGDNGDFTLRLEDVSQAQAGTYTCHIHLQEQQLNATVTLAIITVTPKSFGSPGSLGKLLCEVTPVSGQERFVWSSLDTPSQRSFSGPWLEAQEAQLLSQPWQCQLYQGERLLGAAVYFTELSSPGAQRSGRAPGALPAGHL
Description: competitive flow cytometry: antibody titrated against 3 nM LAG3-mFc binding to MHC II on Raji cells. As to the method:
Raji cells (medium: 1640+10% FBS) (Cell Resource Center, Shanghai Institutes for Biological Sciences, Chinese Academy of Sciences, Cat. No. TCHu 44) were added into EP tubes at 300,000 cells per sample. 1000 μL of 1% PBSA (PBS containing 1% BSA) was added. The mixture was centrifuged at 600×g for 5 min, and the supernatant was discarded. […] The mixture was mixed well and pre-incubated on ice for 30 min. 100 μL of the pre-incubated mixture of antibody and protein was added to the sample. The mixture was mixed well and incubated on ice in the dark for 1 h; 200 μL of 1% PBSA was added, and the mixture was centrifuged at 600×g for 5 min, followed by removal of the supernatant, and then washed twice; 100 μL of an APC anti mouse antibody (purchased from Biolegend, Cat. No. 405308) (diluted at a 1:400 ratio) was added, and the mixture was mixed well and incubated on ice in the dark for 40 min; 200 μL of 1% PBSA was added, and the mixture was centrifuged at 600×g for 5 min, followed by removal of the supernatant; 200 μL of Washing Buffer was added into each tube to resuspend the cells, and then the suspension was transferred to a sample loading tube for testing on a flow cytometer.

The target of assay [2] is T1, human LAG3-mFc. The assay is described as follows: ELISA, human LAG3-mFc coated 2 ug/mL. As to the method: Then the ELISA plate coated with the antigen was washed once with PBST and then blocked with a PBS solution containing 1% BSA as a blocking solution at 37° C. for 2 h. After blocking, the ELISA plate was washed 3 times with PBST. The ELISA plate containing the test antibodies was incubated at 37° C. for 30 min and then washed 3 times with PBST. After washing, a working solution of an HRP-labeled goat anti-human IgG (H+L) (Jackson, Cat. No. 109-035-088) secondary antibody diluted at a ratio of 1:5000 was added, and then the plate was incubated at 37° C. for 30 min. After incubation, the plate was washed 4 times with PBST, TMB (Neogen, 308177) was added for chromogenesis in the dark for 5 min, and then a stop solution was added to terminate the chromogenic reaction. The ELISA plate was put into an ELISA plate reader immediately, and the OD value of each well in the ELISA plate was read at 450 nm. The data were analyzed and processed by SoftMax Pro 6.2.1.

Assay [3] addresses T2, human LAG3 (full length) expressed on cells (human, UniProt P18627 23-525).
T2 construct: whole, on cells; also called huLAG3FL
T2 sequence (looked up): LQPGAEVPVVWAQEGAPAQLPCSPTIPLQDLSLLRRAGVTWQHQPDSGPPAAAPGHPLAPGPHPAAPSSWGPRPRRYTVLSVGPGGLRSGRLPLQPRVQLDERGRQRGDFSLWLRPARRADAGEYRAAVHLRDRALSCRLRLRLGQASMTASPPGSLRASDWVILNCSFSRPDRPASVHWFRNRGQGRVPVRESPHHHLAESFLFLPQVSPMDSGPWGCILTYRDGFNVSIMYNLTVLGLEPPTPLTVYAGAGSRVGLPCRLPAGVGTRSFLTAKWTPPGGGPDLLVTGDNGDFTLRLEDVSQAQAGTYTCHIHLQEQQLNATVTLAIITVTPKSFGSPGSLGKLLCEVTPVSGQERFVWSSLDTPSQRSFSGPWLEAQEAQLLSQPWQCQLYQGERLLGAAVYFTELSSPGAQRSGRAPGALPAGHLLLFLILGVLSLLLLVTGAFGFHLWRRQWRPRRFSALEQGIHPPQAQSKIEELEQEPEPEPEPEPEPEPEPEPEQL
Description: flow cytometry on 293T-LAG3 cells. How it is done:
After centrifugation and washing several times with 1% PBSA, 100 μL of FITC goat anti-human IgG (purchased from Jackson, Cat. No. 109-095-098) (diluted at a 1:500 ratio) was added into each tube, and the mixture was incubated on ice in the dark for 40 min. After washing once with 1% PBSA, 200 μL of 1% PBSA was added to resuspend the cells. Fluorescence signals were detected with FITC channel on a flow cytometer.

B1: H7L9(hG4WT) (antibody, human IgG4 S228P, kappa, V domains shown)
VH: QVQLQQWGAGLLKPSETLSLTCAVYGGSISDYYWNWIRQPPGKGLEWIGEINHRGTTNSNPSLKSRVTLSLDTSKNQFSLKLRSVTAADTAVYYCAFGYSDYEYDWFDPWGQGTLVTVSS
VL: EIVLTQSPATLSLSPGERATLSCRASQTISSYLAWYQQKPGQAPRLLIYDGSNRATGIPARFSGSGSGTDFTLTISSLEPEDFAVYYCQQRSNWPLTFGQGTNLEIKR
notes: Humanized anti-LAG3 IgG4 (Ig gamma-4 chain C region) with human kappa constant region
B1: the EC50 in assay [1] is 1.32 nM; in assay [2], 0.142 nM; in assay [3], 4.81 nM.

B2: H7L10(hG4WT) (antibody, human IgG4 S228P, kappa, V domains shown)
VH: QVQLQQWGAGLLKPSETLSLTCAVYGGSISDYYWNWIRQPPGKGLEWIGEINHRGTTNSNPSLKSRVTLSLDTSKNQFSLKLRSVTAADTAVYYCAFGYSDYEYDWFDPWGQGTLVTVSS
VL: EIVLTQSPATLSLSPGERATLSCRASQSISSYLAWYQQKPGQAPRLLIYDGSNRATGIPARFSGSGSGTDFTLTISSLEPEDFAVYYCQQRSNWPITFGQGTNLEIKR
notes: as for B1
For B2, the values for the EC50 in assay [1], in assay [2] and in assay [3] were 1.27 nM, 0.157 nM and 4.17 nM, respectively.
